From the nanobody polyreactivity screen of Harvey et al. (2022) come the findings set out here.

This data set can be described thus: yeast display, Sf9 membrane polyspecificity reagent, FACS + sequencing; frameworks hold sequencing errors. A digest of the protocol:
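Sorting gates, low and high (top ~1%), were placed on anti-HA fluorescence to track expression and on streptavidin fluorescence to track reagent binding. A clone's polyreactivity label is taken from the gate it came out of. The reagent was 10% biotinylated, detergent-solubilized Sf9 membrane, applied for 1 hour at 4 °C to galactose-induced yeast display cells.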
For “QFHLVESCGGLVQAGGSLRLSCAASGIIFSTYFMGWYIQAPGKERELVAAISSRGFSTYYADSVKGRFTISRDNAKKTVYLQMNSLIPEDTAVYYCAARYYYSRSRLYYYWGQGTQVTVSS”, the “polyreactivity (PSR sort gate)” value is “high polyreactivity”.
On to “QFQLEESGGGLVQAGGSLRLSCAASGNIFFTNAMGRYRQAPGNERELVATITFRGTSTYYADSVKGRFTISRDNAKNTVYLQMNCLKPEDTAVYYCTARYSVFHRARVNLLGWGLYYWGQGTQVTVSS”, for which the “polyreactivity (PSR sort gate)” value was “low polyreactivity”.
In the case of “QFQLEESGGGLVQAGGSLRLSCAASGRIFPTYTRGWYSQAPGKERVLVAGISYSGTSTSYADSVKGRFTMSRDNAKNSVYLELNSLKPEDTAVYYCAAKYYGRSFYYGYDYWGQGTQVTVSS”, the “polyreactivity (PSR sort gate)” value is on record as “low polyreactivity”.
Next, “QFQLEESGRGLVQAGGSLRLSCAASGSTLSYNAMGCYRQAPGKERELVAAISGRGGSTSYADSVKGRFTITRDNAKKTVYLQMNRLKPVDTAVYYCIAGKYSSSAALYDYWGQGTQVTVSS”: “high polyreactivity”; “QFQLEESVGGLVQAGGSLRLSCAASGFTFKSYAMGWYRQATVNVREFVARITYSGGGTYYADSVKGRFTISRDNAKNTVYLLMNSLKPEDTAVYYCARPFNRYLGLTRNGYTSDYWGQGTQVTVSS”: “high polyreactivity”; “QFQLGESGGGLVQAGGSLRLSCAACGSTFYLYAMGWYRQAPGKDRELVAAISKSCGSTYYADSVKGRFTISRDNAKNTVYLQMNSLKPEVTAVYYCATRWIKGRKMDYWGQGTQVTVSS”: “high polyreactivity”.
Next, “QFQLGESGGGLVQAGGSLRLSCAASGYIFKKNAMGWYRQAPGYERELVAVISARGGRTYYADSVKGRFTISRDKGKNTVYLQMNSLKPEDTAVYYCAAVSLGITYDYWGQGTQVTVSS”: “low polyreactivity”; “QFQLVESCGGLVQAGGSLRLSCAASGSIFYYYVMGWYRQAPGKEREFVAAISWRGDSTYYADSVKGRFTISRDNAKNTVYLQMNSLKPEDTAVYYCNADYPWSVVGYDYLGQGTQVTVSS”: “low polyreactivity”.
With “QFQLVESGGGIVQAGGSLRLSCAASGRTIYQYAMGWYRESPANERELVAAISRSGTSTYYADSVKGRFTISRDNAKNTVYLQMNSLKPEDTAVYFCAARYVSKYNYPSPEMYYWGQGTKVTVSS” the entry was “high polyreactivity”; with “QFQLVESGGGLVHAGGSLRLICAASGRTFVYNAMGWYRQAPGKERDLVAAISFGGGNTYYADSVKGRFTISRDNAKNTVYLQMNCLKPEDTAVYYCAKAYIGYWGASCYYAYDYWGQGTQVTVSS”, “low polyreactivity”.
As to “QFQLVESGGGLVQAGGRLRLSCAASGYTFYSYAMGWSRQAPGKERELVASITRRVGGTYYADSVKGRFTISRDNAKKTVYLQMNSLKPEDTAVYYCAAGYYHKKSSTDIEKYWGQGTQLTVSS”, the “polyreactivity (PSR sort gate)” value is given as “low polyreactivity”.
With “QFQLVESGGGLVQAGGSLRLICDASGSIFYPYTIGWYRQAPWKERQLVAAITWDGGNTYYADSVKGRFTISRDNAKNTVYLQMNSLKREDTAVYYCAAVTSGWGTYRMYYWGQGTQETVSS” the entry was “high polyreactivity”; with “QFQLVESGGGLVQAGGSLRLSCAASGCIFLYYAMGSYRPATGNERELVASISSGGSTNYADSVKGRFTISRDNAKNTVYLQMNSLKPEDTAVYYCAARPYGGGRRSIYYYWGQGTQVTESS”, “high polyreactivity”.
For the sequence “QFQLVESGGGLVQAGGSLRLSCAASGFTFWLYAMGWYRQAPGKEREFVAAISTSGGSTYADSVKGRFTISRDNAKNTVYLHMNSLKPEDTAVYYCNAGYLLYYDYHLFYWGQGTQVTVSS”, the “polyreactivity (PSR sort gate)” value is “low polyreactivity”.
As for “QFQLVESGGGLVQAGGSLRLSCAASGGTFGWNAMGLYRQAPGKERELVAAITSSGGDTYYADSVKGRFTISRDNAKNTVYLQMNSLKPEDTAVYYCAAEDGRQYGYWGQGTQVTVSS”, the “polyreactivity (PSR sort gate)” value was “low polyreactivity”.
For the sequence “QFQLVESGGGLVQAGGSLRLSCAASGGTFYSNAMGCYRQAPGKERDLVATITGGGRTYYADSVKGRFTISRDNAKNTVYLQMNSLKPEDNAVYYCAVRGYHQYKYGYWGQGTQVNVSS”, the “polyreactivity (PSR sort gate)” value is “high polyreactivity”.
Turning to “QFQLVESGGGLVQAGGSLRLSCAASGITFVYYAMGGYRQAPGKERELVAAISRGGTSTYYADSVKGRFTISRDNAKNTVYLHMNSLKPEDTAVYYCNARYPKSYRTNYYYWGQGTQVTVSS”, the “polyreactivity (PSR sort gate)” value is reported as “high polyreactivity”.
For the sequence “QFQLVESGGGLVQAGGSLRLSCAASGLIFAYNAKGWSRQATGKERELVAAITGGGDGTYYADSVKGRFTISRDNAKYTVYLQMNSLKPEDTAVYYCAADYKYVGSEYGYWGQGTQVTVSS”, the “polyreactivity (PSR sort gate)” value is “low polyreactivity”.
With “QFQLVESGGGLVQAGGSLRLSCAASGLTFVAYAMGWYRQAPGKEMELVAAITRRGGSTYYADSVKGRFTISRDNEKNPVSLQMNSLKPEDTAVYYCAAEGWYSRNPGFDYWGQGTQVTVSS” the entry was “high polyreactivity”.
As to “QFQLVESGGGLVQAGGSLRLSCAASGRIFCRYAMGWYRQAPGKETELVPVISARGARTYYEDSVKGRFTISRDNAKYTVYLQMNSLKPEDTAVYYCNKVGVLSGYYYPHASGDYWGQGTQVTVSS”, the “polyreactivity (PSR sort gate)” value is “high polyreactivity”.
With “QFQLVESGGGLVQAGGSLRLSCAASGRIFDFYAMGWYREAPGKERELVAAISWRGGSTYYAHSVKGRFTISRDNAKNTVYLQMNSLKPEDTAVYYCATRFGPRYYWGQGTQVTVSS” the entry was “low polyreactivity”.
With “QFQLVESGGGLVQAGGSLRLSCAASGRIFDTYVMRWYRQAPGKERDLVAAISGSGGSTYYAYSVKGRFTISRDNAKNTVYLQMNSLKPEDTEVYYCAAARRYYAYRYDYWGQGTQVTVSS” the entry was “high polyreactivity”; with “QFQLVESGGGLVQAGGSLRLSCAASGRIFGDNAMGWYRQAPGKERELVADIDSGGRTNYADSVKGRFTISRDNAKNTVYLQMNSLKPEDTAVYYCARDDIAYLVEYDYWGQGTQVTVSS”, “low polyreactivity”.
Take “QFQLVESGGGLVQAGGSLRLSCAASGRIFIIYAMGWYRQAPGKERELVAAINRGATTNFADSVKGRFTISRDNAKNTVYLQMNSLKPEDTAVYYCAACSGPSLSRFLRYANDYWGQGTQVTLSS”: the “polyreactivity (PSR sort gate)” value was “high polyreactivity”.
In the case of “QFQLVESGGGLVQAGGSLRLSCAASGRIFLSYAMGWYRQAPGKERELVAAITLSGGSTYYADSVKGRFTISRDNAKNTVSLQMNSLKPEVTGVYYCAADAWFSLRYAPRSYAYGYWGQGTQVTVSS”, the “polyreactivity (PSR sort gate)” value was “low polyreactivity”.
With “QFQLVESGGGLVQAGGSLRLSCAASGRIFPLYVMGWYRQAPGKERELVAAMSRSGSRTYYADSVKGRFTISRDNAKNTVYFQMNSLKPEDTAVYYCAAVPDGTTRYDGDYWGQGTQVTVSS” the entry was “high polyreactivity”; with “QFQLVESGGGLVQAGGSLRLSCAASGRIFYGYAMVWYRQAPGKERDLVAAISWRGGRTYYADSVKGRFTISRDNAKNTVYLQMNSLKPEDTAVYYCNKVFPPQGQLRNMYYWGQGTQVTVSS”, “high polyreactivity”.
Next, “QFQLVESGGGLVQAGGSLRLSCAASGRIFYSYAIGWYRQAPGKERELVAAINWSSVRTYYADSVKGRFTISRDNAKNTVYLQMNSLKPEDTAVYYWNAYSTEWGRYDYWGQGTQVTVSS”: “high polyreactivity”; “QFQLVESGGGLVQAGGSLRLSCAASGRIFYYYAMGWYRQAPGKERELVAAITRGGSTYADSVKGRFTISRDNAKNTVYLQMNSLKPEDTAVYYCAATYWYWDFRWMDYWGQGTQVTVSS”: “high polyreactivity”; “QFQLVESGGGLVQAGGSLRLSCAASGRISYAYAMGWYRQAPGKEREFVAAISGSGGSTYYADSVKGRFTISRDNAKKTVYLQMNSLKPEDTAVYYCDAGSGEYYGGKRYYWGQGTQVTVSS”: “low polyreactivity”.
